Test results from patent US11547721B2, “Magnetic nanoparticles for use in the treatment of tumors” (CONSIGLIO NAZIONALE DELLE RICERCHE, priority 2018, dated 2023).

How the values were obtained:
[1] = tested on: IGROV-1 cells; experiment: Hyperthermia combined with release of chemotherapeutic agent, viability with Presto blue; type: cell-based; conditions: for cell viability at 24 hours / cell viability at 48 hours / cell viability at 120 hours: with hyperthermia (2 x 30 min, 42° C., 27 kA m^−1, 182 kHz), 5.5 g Fe/L
Protocol: Hyperthermia experiments were conducted on cells treated with the invention's nanocubes to monitor the efficiency of nanoparticles in killing tumor cells with heat and improving the toxicity mediated by oxaliplatin. In practice, 3×10^6 IGROV-1 cells were incubated with 5.5 g of Fe/L of invention nanocubes functionalized with oxaliplatin and NCs-PEG-Pt-C4 antibody fragment, and exposed to a magnetic field of 27 kA m^−1 at frequency of 182 kHz, so as not to exceed the biological limit (Hf=5×10^9 A m^−1 s^−1). Two consecutive 30-minutes hyperthermia treatments were then performed, each with a maximum temperature reached in these conditions of 42° C. Also included in this study were: untreated cells, cells incubated with nanocubes functionalized only with antibody without oxaliplatin (exposed and not exposed to hyperthermia), and cells incubated with nanocubes functionalized with antibody and oxaliplatin not exposed to hyperthermia. A control experiment was also performed by incubating the cells with free oxaliplatin at the same amount of platinum loaded on the nanocubes (28 μg of platinum, corresponding to 140 μM of oxaliplatin).
After the hyperthermal treatment, the cells were washed to remove excess nanocubes present and re-seeded in a fresh culture medium (5×10^4 cells per well for each cell sample), so as to monitor their vitality at 24, 48 and 120 hours after treatment, with an assay with blue Presto. […] After 120 hours, the combined and concomitant action of hyperthermia and release of the chemotherapeutic agent made the cells unable to recover their growth (vitality of about 40% at 120 hours).

[2] = tested on: IGROV-1 cells; experiment: Cytotoxicity, cell viability assay with Presto blue; type: cell-based
Protocol: Cytotoxicity studies have been conducted to confirm the activity of the platinum-based chemotherapeutic agent attached to the nanocubes. IGROV-1 cells were incubated with nanocubes functionalized with oxaliplatin and antibody (in FIG. 3a indicated as NCs_OHP_C4) for 24, 48 and 72 hours at Fe concentration equal to 0.05 g/L, 0.1 g/L and 0.15 g/L, corresponding to 1.3, 2.6 and 3.9 μM of oxaliplatin chemotherapeutic agent. Cell viability has been verified in an assay with Presto blue. […] The toxicity of the chemotherapeutic agent alone was administered, administered to the cells for 24 hours, 48 hours and 72 hours at the concentration of oxaliplatin corresponding to the same quantity loaded on the nanocubes. […] It is also important to note that in these experiments the control consisted of nanocubes with polymeric coating, functionalised with PEG-NTA-C4, but lacking oxaliplatin, prepared as described above.
Cytotoxicity data were also collected for longer-time treatments, to verify the toxicity of oxaliplatin loaded on the nanocubes according to the invention over extended periods of time. In fact, since the action of platinum-based chemotherapy drugs involves their interleaving within the cell's DNA, the adverse effects of treatment with these drugs should be more evident at longer times after exposure to the drug. Then, after exposure of the IGROV-1 cells to the nanocubes functionalized with antibody and drug for 24, 48 and 72 hours of treatment respectively, the supernatant was removed and the cells were kept in a fresh culture medium for a further 24, 48 or 72 hours. The viability of these cells was verified by analysis with blue Presto immediately after direct exposure to the nanocubes and at 24, 48 and 72 hours after incubation.

[3] = tested on: IGROV-1 cells; experiment: Comet assay for DNA cross-linking; type: cell-based; conditions: 24, 48, 72 hours incubation, then H2O2
Protocol: Furthermore, once released from the nanocubes, platinum must be incorporated into the cell nuclei and must form crosslinks with the DNA. In fact, its toxicity depends on the impossibility for cells to replicate and transcribe their genetic makeup due to the presence of platinum-DNA complexes. Thus, to evaluate the presence of cross-linking in the DNA of cells treated with nanocubes, a Comet assay was performed, whose results are illustrated in the images in FIG. 7, acquired with a confocal microscope. In this experiment, the cell samples examined of IGROV-1 cells were incubated with the nanocubes with antibody but without platinum (in FIG. 7 indicated as NCs_C4) and with the nanocubes of the invention with antibody and oxaliplatin (indicated in the figure as NCs_OHP_C4) for 24, 48 and 72 hours, so they were treated with H2O2 hydrogen peroxide. As a control, IGROV-1 cells were used, treated with the same nanocubes, with and without platinum, but without treatment with hydrogen peroxide.
The toxicity observed in the cells following treatment with functionalized nanocubes of the invention, we can conclude that it results from the combined effects of hyperthermia and toxicity induced by the platinum-based drug.

[4] = tested on: IGROV-1 cells; experiment: Confocal laser scanning microscopy (CLSM) of nanocube internalization; type: cell-based
[5] = tested on: IGROV-1 cells (high natural expression of folate receptors); experiment: Flow cytometry (FACS) binding of nanocubes to cells; type: cell-based; conditions: 0.025 mg/mL antibody fragment, PBS, 4° C., 1 hour
Protocol: (§1) The A431-tFR and A431-MOCK cells provided by the IRCSS Foundation, National Cancer Institute, Milan, Italy, were grown in the modified Dulbecco culture medium (DMEM, Merck, Kenilworth, USA). IGROV-1 cells (ATCC, UK) were cultured in RPMI-1640 (RPMI-1640, Merck, Kenilworth, USA). The KB cells (ATCC, UK) were cultured in RPMI-1640 without folic acid (RPMI-1640 without folic acid, Merck, Kenilworth, USA). All culture media were added with 10% inactivated fetal bovine serum (FBS), 1% penicillin-streptomycin and 1% glutamine at 37° C., 95% humidity with 5% CO2. The cells were divided every 3-4 days before reaching confluence. In these experiments, the functionalized nanocubes of the invention comprising the antibody fragment in a quantity of 0.025 mg/mL were incubated in PBS at 4° C. for 1 hour with 5×10^5 cells of the cell lines indicated above. As a negative control, the non-functionalised nanocubes with polymer coating were used. Then, after three washes, the cells were incubated for 1 hour at 4° C. with the primary antibody that binds to the myc sequence of the C4 antibody fragment. Following a wash in PBS a secondary antibody conjugated to the fluorescent probe Alexa-488 was added to the cells, capable of binding the Fc portion of the primary antibody.

[6] = tested on: A431-tFR cells (A431 transfected with folate receptor gene α-FR); experiment: as above; type: cell-based; conditions: 0.025 mg/mL antibody fragment, PBS, 4° C., 1 hour
Protocol: as §1

[7] = tested on: KB cells (high natural expression of folate receptors); experiment: as above; type: cell-based; conditions: 0.025 mg/mL antibody fragment, PBS, 4° C., 1 hour
Protocol: as §1

[8] = tested on: A431-MOCK cells (do not express the folate receptor); experiment: as above; type: cell-based; conditions: 0.025 mg/mL antibody fragment, PBS, 4° C., 1 hour
Protocol: as §1

[9] = Release of platinum from nanocubes in citrate buffer at different pH; type: physicochemical; conditions: pH 5.5, 5 and 4.5
Source text: Firstly, in a test tube, the release of platinum from the citrated buffer nanocubes at different pH was verified, according to the expected acidity values for endosomes, late endosomes and lysosomes (pH=5.5, 5 and 4.5 respectively). It has thus been verified that the release of platinum is pH dependent and that the maximum amount of platinum released is obtained at the lowest pH, i.e. at pH 4.5, which corresponds to the pH of the lysosomal environment.

[10] = 24, 48 and 72 hours, oxaliplatin amount or nanocube concentration as for loaded nanocubes

Molecule	cell viability after treatment ([1]; free drug, 140 μM oxaliplatin (28 μg platinum), 24, 48, 120 hours)	toxicity (cell viability, Presto blue) [2, 10]	DNA trace in Comet assay [3]	localization of nanocubes in cells ([4]; 2 hours incubation at 37° C.)	localization of nanocubes in cells ([4]; 4 hours incubation at 37° C.)	localization of nanocubes in cells ([4]; 12 hours incubation at 37° C.)	nanocube binding to cells (fluorescence intensity vs. cell count) [5]	nanocube binding to cells (fluorescence intensity vs. cell count) [6]	nanocube binding to cells (fluorescence intensity vs. cell count) [7]	nanocube binding to cells (fluorescence intensity vs. cell count) [8]	cell viability at 24 hours [1]	cell viability at 48 hours [1]	cell viability at 120 hours [1]	cell viability post-incubation (p.i.) ([2]; 24 hours of treatment, then fresh medium 24, 48, 72 hours)	toxicity (cell viability, Presto blue) ([2]; 48 hours incubation, Fe 0.05, 0.1, 0.15 g/L = 1.3, 2.6, 3.9 μM oxaliplatin)	cell viability post-incubation (p.i.) ([2]; 48 hours of treatment, then fresh medium up to 72 hours)	toxicity (cell viability, Presto blue) ([2]; 72 hours incubation vs 48 hours, Fe 0.05, 0.1, 0.15 g/L = 1.3, 2.6, 3.9 μM oxaliplatin)	pH of maximum amount of platinum released [9]	release of platinum [9]
O=C1[O][Pt]2([NH][C@@H]3CCCC[C@H]3[NH]2)[O]C1=O [oxaliplatin, reference compound]	slightly affected	moderate toxicity																	
NCs-PEG-Pt-scFv (conjugate) scFv: NVQLVESGGGLVQPGRSLRLSCTTSGFTFGDYAMIWARQAPGKGLEWVSSISSSSSYIYYADSVKGRFTISRDNAKNSLYLQMNSLRAEDTAVYYCARERYDFWSGMDVWGKGTTVTVSSGGGGSGGGGSGGSAQSALTQPASVSGSPGQSITISCTGTSSDVGSYNLVSWYQQHPGKAPKLMIYEGSKRPSGVSNRFSGSKSGNAASLTISGLQAEDEADYYCQSYDSSLSVVFGGGTKLTVLGAAAHHHHHHGAAEQ			progressive delay in migration reaching a maximum after 72 hours	most of the nanocubes were located at the cell membrane	progressive internalization	complete internalization	nanocube binding was demonstrated	nanocube binding was demonstrated	nanocube binding was demonstrated	no binding was found	significantly modified cell viability	further compromised	about 40%	decreases after 24 hours of treatment (post-incubation, p.i.) for the next 24 hours and then goes up again after 48 and 72 hours post-incubation	Serious toxicity	decreases again for the next 72 hours	increased	4.5	pH dependent
NCs_scFv (conjugate) scFv: NVQLVESGGGLVQPGRSLRLSCTTSGFTFGDYAMIWARQAPGKGLEWVSSISSSSSYIYYADSVKGRFTISRDNAKNSLYLQMNSLRAEDTAVYYCARERYDFWSGMDVWGKGTTVTVSSGGGGSGGGGSGGSAQSALTQPASVSGSPGQSITISCTGTSSDVGSYNLVSWYQQHPGKAPKLMIYEGSKRPSGVSNRFSGSKSGNAASLTISGLQAEDEADYYCQSYDSSLSVVFGGGTKLTVLGAAAHHHHHHGAAEQ		no toxicity	traces of extensive damage								significantly modified cell viability	began to show a recovery	95%						
